B1: NEK8 (parent)
chain: VVGTPCYISPELCEGKPYNQKSDI

Variants of: B1
Assay: protein stability index of a GFP-peptide fusion (GPS, HEK-293T) (PSI 1-6); higher = more stable
Conditions: c terminus: a fixed tail appended
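Also: lentivirally expressed fusions sorted by FACS into six bins by GFP to DsRed ratio, PSI derived from sequencing read proportions per bin multiplied by bin number.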

Protein stability index of substitutions, site by site:
I8: L 3.48; D 4.18; Y 2.31; Q 4.42
N19: H 2.48; Y 2.39; D 3.22; Q 3.19; P 2.82; A 2.79; M 2.88; W 2.02; K 2.98
Y18: W 2.6; F 2.67; K 3.67; G 3.45; S 3.86; I 2.79; P 3.4; R 3.58; E 3.72
Y7: M 3.97; H 3.87; I 4.08
P10: R 2.98; K 3.56; N 3.44; L 2.01; Q 3.49; M 2.24; F 2.03
S9: F 1.96; L 1.68; P 3.58; I 2.32; W 2.25; R 2.48
Q20: C 2.57; F 1.85; H 2.59; P 2.31; N 3.3; S 2.49; R 2.84; E 2.63; K 3.15; D 2.54
C6: G 3.39; H 2.47; E 4.34; A 2.81; Y 2.02; R 3.88; V 2.71; N 2.38
E14: R 2.51; K 2.6; W 2.5; I 2.2; A 2.49; D 2.45
E11: K 2.74; S 2.7; V 1.59; R 2.49; D 3.16; C 1.68; G 2.54
T4: N 3.87; P 3.46; C 2.85; K 3.45; Q 4.19; A 2.95
K16: H 2.15; F 2.11; R 2.62; G 2.55; E 3.05; S 2.17; D 3.14; V 2.78
I24: C 2.91; V 3.27; Q 3.33; L 2.79
C13: T 2.94; F 2.19; E 2.98; G 3.08; I 2.48; R 3.27; M 2.79; L 2.88; K 3.38
K21: M 2.07; N 2.85; T 2.48; P 2.45
L12: T 3.15; E 4.11; R 3.35; C 3.29; F 2.15; Y 2.27; D 3.4; K 3.69
V2: P 3.44; L 3.58; I 3.56; M 3.23; T 3.73; F 3.12
P17: I 2.39; R 3.38; T 3; N 3.12; Y 2.27; Q 2.77; C 2.22; V 2.55
P5: Y 2.06; N 3.21; I 1.64; M 2.75; S 3.36; F 1.16; E 3.53; Q 3.62
S22: K 3.12; D 3.05; A 2.48; P 3.08; Q 2.85; I 2.5
V1: E 4.48; I 2.32; Q 4.14; P 4.25; R 3.74; A 3.78; C 3.31; Y 2.88
G15: D 2.93; W 1.64; K 3.45; M 2.39; R 2.85; P 2.56; C 2.47; F 2.15; Q 2.97; A 2.85; Y 2.34; V 3.14
D23: V 2.02; Y 2.44; H 2.94; A 2.74; F 2.04; L 2.15
G3: S 3.01; N 3.52; T 3.01; H 2.74; M 1.84
